The target in the experiment is T1, human amylin receptor (Amylin 3(a) receptor: human calcitonin receptor co-expressed with RAMP-3) (human, UniProt P30988 25-474; O60896 24-148, limits assumed).
T1 construct: whole, on cells; Used as cell membranes prepared from the Amylin 3(a)/CRE-luc BHK cells (Assay V); the complex is called the human amylin receptor; also called hAmylin-R; hAmylinR
T1 sequence (looked up) 1: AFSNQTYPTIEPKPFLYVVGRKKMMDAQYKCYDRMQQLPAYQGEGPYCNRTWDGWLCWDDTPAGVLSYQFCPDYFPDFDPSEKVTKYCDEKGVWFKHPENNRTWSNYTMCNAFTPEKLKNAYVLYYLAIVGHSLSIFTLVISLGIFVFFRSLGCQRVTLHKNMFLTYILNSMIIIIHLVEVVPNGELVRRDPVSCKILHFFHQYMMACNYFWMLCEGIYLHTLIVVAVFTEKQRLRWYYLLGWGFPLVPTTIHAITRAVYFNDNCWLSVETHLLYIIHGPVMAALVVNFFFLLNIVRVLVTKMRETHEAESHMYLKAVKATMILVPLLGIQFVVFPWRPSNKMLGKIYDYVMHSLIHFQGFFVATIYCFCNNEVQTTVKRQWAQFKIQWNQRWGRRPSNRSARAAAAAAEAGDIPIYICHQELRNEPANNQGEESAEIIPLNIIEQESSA
T1 sequence (looked up) 2: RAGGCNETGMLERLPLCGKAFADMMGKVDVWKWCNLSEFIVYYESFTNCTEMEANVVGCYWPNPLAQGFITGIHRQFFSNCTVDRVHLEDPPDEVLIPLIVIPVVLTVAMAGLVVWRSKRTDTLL
As to the kind of experiment: SPA competition binding, displacement of 125I-rat amylin from membranes of BHK cells with human calcitonin receptor + RAMP-3 (Assay V). The essentials:
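One-site competition analysis of SPA counts yielded IC₅₀ as a measure of affinity. Membranes were at 35 ng/μL final; incubation was 120 min at 25° C, pH 7.4.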

Numbered stars: 1 amine (or outer) side, 2 acyl side, 3 side chain; on linkers, the order of the positions; unused ones are H or OH. Bridge positions count the residues as written; N and C are the ends. Side chains are listed from the residue outwards. Ends that are not written are not given here. * marks the point of attachment. C20 diacid = O=C(O)CCCCCCCCCCCCCCCCCCC(=O)*; γGlu = O=C(O)[C@H](CCC(=O)[*:2])N[*:1]

B1: N^ε1-[(4S)-4-carboxy-4-[[(4S)-4-carboxy-4-(19-carboxynonadecanoylamino)butanoyl]amino]butanoyl]-[Glu14,Arg17,Pro21,Pro27,Pro34,Arg35]-h-amylin (peptide)
peptide: K([γGlu-γGlu-C20 diacid])CNTATCATQRLAEFLRHSSPNFGAIPSSTNVGPRTY-NH2
modifications: disulfide 2-7; N-terminus assumed
SMILES: CC[C@H](C)[C@H](NC(=O)[C@H](C)NC(=O)CNC(=O)[C@H](Cc1ccccc1)NC(=O)[C@H](CC(N)=O)NC(=O)[C@@H]1CCCN1C(=O)[C@H](CO)NC(=O)[C@H](CO)NC(=O)[C@H](Cc1c[nH]cn1)NC(=O)[C@H](CCCNC(=N)N)NC(=O)[C@H](CC(C)C)NC(=O)[C@H](Cc1ccccc1)NC(=O)[C@H](CCC(=O)O)NC(=O)[C@H](C)NC(=O)[C@H](CC(C)C)NC(=O)[C@H](CCCNC(=N)N)NC(=O)[C@H](CCC(N)=O)NC(=O)[C@@H](NC(=O)[C@H](C)NC(=O)[C@@H]1CSSC[C@H](NC(=O)[C@@H](N)CCCCNC(=O)CC[C@H](NC(=O)CC[C@H](NC(=O)CCCCCCCCCCCCCCCCCCC(=O)O)C(=O)O)C(=O)O)C(=O)N[C@@H](CC(N)=O)C(=O)N[C@@H]([C@@H](C)O)C(=O)N[C@@H](C)C(=O)N[C@@H]([C@@H](C)O)C(=O)N1)[C@@H](C)O)C(=O)N1CCC[C@H]1C(=O)N[C@@H](CO)C(=O)N[C@@H](CO)C(=O)N[C@H](C(=O)N[C@@H](CC(N)=O)C(=O)N[C@H](C(=O)NCC(=O)N1CCC[C@H]1C(=O)N[C@@H](CCCNC(=N)N)C(=O)N[C@H](C(=O)N[C@@H](Cc1ccc(O)cc1)C(N)=O)[C@@H](C)O)C(C)C)[C@@H](C)O
notes: modifications are with respect to human amylin; also called compound 110
For the molecule B1, the IC50 amounted to 0.326 nM.

B2: N^ε1-[(4S)-4-carboxy-4-[[(4S)-4-carboxy-4-(19-carboxynonadecanoylamino)butanoyl]amino]butanoyl]-[Glu14,Arg17,Pro21,Pro31,Pro34,Glu35]-h-amylin (peptide)
peptide: K([γGlu-γGlu-C20 diacid])CNTATCATQRLAEFLRHSSPNFGAILSSTPVGPETY-NH2
modifications: disulfide 2-7 (inferred)
notes: modifications are with respect to human amylin
Consider B2, for which the IC50 amounted to 0.069 nM.

B3: N^ε1-[(4S)-4-carboxy-4-[[(4S)-4-carboxy-4-(19-carboxynonadecanoylamino)butanoyl]amino]butanoyl]-[Glu14,Arg17,Pro21,Pro27,Pro34,Phe37]-h-amylin (peptide)
peptide: K([γGlu-γGlu-C20 diacid])CNTATCATQRLAEFLRHSSPNFGAIPSSTNVGPNTF-NH2
modifications: disulfide 2-7; N-terminus assumed
SMILES: CC[C@H](C)[C@H](NC(=O)[C@H](C)NC(=O)CNC(=O)[C@H](Cc1ccccc1)NC(=O)[C@H](CC(N)=O)NC(=O)[C@@H]1CCCN1C(=O)[C@H](CO)NC(=O)[C@H](CO)NC(=O)[C@H](Cc1c[nH]cn1)NC(=O)[C@H](CCCNC(=N)N)NC(=O)[C@H](CC(C)C)NC(=O)[C@H](Cc1ccccc1)NC(=O)[C@H](CCC(=O)O)NC(=O)[C@H](C)NC(=O)[C@H](CC(C)C)NC(=O)[C@H](CCCNC(=N)N)NC(=O)[C@H](CCC(N)=O)NC(=O)[C@@H](NC(=O)[C@H](C)NC(=O)[C@@H]1CSSC[C@H](NC(=O)[C@@H](N)CCCCNC(=O)CC[C@H](NC(=O)CC[C@H](NC(=O)CCCCCCCCCCCCCCCCCCC(=O)O)C(=O)O)C(=O)O)C(=O)N[C@@H](CC(N)=O)C(=O)N[C@@H]([C@@H](C)O)C(=O)N[C@@H](C)C(=O)N[C@@H]([C@@H](C)O)C(=O)N1)[C@@H](C)O)C(=O)N1CCC[C@H]1C(=O)N[C@@H](CO)C(=O)N[C@@H](CO)C(=O)N[C@H](C(=O)N[C@@H](CC(N)=O)C(=O)N[C@H](C(=O)NCC(=O)N1CCC[C@H]1C(=O)N[C@@H](CC(N)=O)C(=O)N[C@H](C(=O)N[C@@H](Cc1ccccc1)C(N)=O)[C@@H](C)O)C(C)C)[C@@H](C)O
notes: as for B2
On to B3, for which the IC50 was found to be 0.152 nM.

B4: N^ε1-[(4S)-4-carboxy-4-[[(4S)-4-carboxy-4-(19-carboxynonadecanoylamino)butanoyl]amino]butanoyl]-[Glu14,Arg17,Pro23,Pro34,Glu35]-h-amylin (peptide)
peptide: K([γGlu-γGlu-C20 diacid])CNTATCATQRLAEFLRHSSNNPGAILSSTNVGPETY-NH2
modifications: disulfide 2-7; N-terminus assumed
SMILES: CC[C@H](C)[C@H](NC(=O)[C@H](C)NC(=O)CNC(=O)[C@@H]1CCCN1C(=O)[C@H](CC(N)=O)NC(=O)[C@H](CC(N)=O)NC(=O)[C@H](CO)NC(=O)[C@H](CO)NC(=O)[C@H](Cc1c[nH]cn1)NC(=O)[C@H](CCCNC(=N)N)NC(=O)[C@H](CC(C)C)NC(=O)[C@H](Cc1ccccc1)NC(=O)[C@H](CCC(=O)O)NC(=O)[C@H](C)NC(=O)[C@H](CC(C)C)NC(=O)[C@H](CCCNC(=N)N)NC(=O)[C@H](CCC(N)=O)NC(=O)[C@@H](NC(=O)[C@H](C)NC(=O)[C@@H]1CSSC[C@H](NC(=O)[C@@H](N)CCCCNC(=O)CC[C@H](NC(=O)CC[C@H](NC(=O)CCCCCCCCCCCCCCCCCCC(=O)O)C(=O)O)C(=O)O)C(=O)N[C@@H](CC(N)=O)C(=O)N[C@@H]([C@@H](C)O)C(=O)N[C@@H](C)C(=O)N[C@@H]([C@@H](C)O)C(=O)N1)[C@@H](C)O)C(=O)N[C@@H](CC(C)C)C(=O)N[C@@H](CO)C(=O)N[C@@H](CO)C(=O)N[C@H](C(=O)N[C@@H](CC(N)=O)C(=O)N[C@H](C(=O)NCC(=O)N1CCC[C@H]1C(=O)N[C@@H](CCC(=O)O)C(=O)N[C@H](C(=O)N[C@@H](Cc1ccc(O)cc1)C(N)=O)[C@@H](C)O)C(C)C)[C@@H](C)O
notes: as for B2
B4: the IC50 amounted to 1.19 nM.

B5: N^ε1-[(4S)-4-carboxy-4-[[(4S)-4-carboxy-4-(19-carboxynonadecanoylamino)butanoyl]amino]butanoyl]-[Glu14,Arg17,Pro21,Pro27,Pro34,His35]-h-amylin (peptide)
peptide: K([γGlu-γGlu-C20 diacid])CNTATCATQRLAEFLRHSSPNFGAIPSSTNVGPHTY-NH2
modifications: disulfide 2-7 (inferred)
notes: as for B2
Consider B5, for which the IC50 is 0.377 nM.

B6: N^ε1-[(4S)-4-carboxy-4-[[(4S)-4-carboxy-4-(19-carboxynonadecanoylamino)butanoyl]amino]butanoyl]-[Ser14,Arg17,Pro21,Pro27,Pro34,Glu35]-h-amylin (peptide)
peptide: K([γGlu-γGlu-C20 diacid])CNTATCATQRLASFLRHSSPNFGAIPSSTNVGPETY-NH2
modifications: disulfide 2-7; N-terminus assumed
SMILES: CC[C@H](C)[C@H](NC(=O)[C@H](C)NC(=O)CNC(=O)[C@H](Cc1ccccc1)NC(=O)[C@H](CC(N)=O)NC(=O)[C@@H]1CCCN1C(=O)[C@H](CO)NC(=O)[C@H](CO)NC(=O)[C@H](Cc1c[nH]cn1)NC(=O)[C@H](CCCNC(=N)N)NC(=O)[C@H](CC(C)C)NC(=O)[C@H](Cc1ccccc1)NC(=O)[C@H](CO)NC(=O)[C@H](C)NC(=O)[C@H](CC(C)C)NC(=O)[C@H](CCCNC(=N)N)NC(=O)[C@H](CCC(N)=O)NC(=O)[C@@H](NC(=O)[C@H](C)NC(=O)[C@@H]1CSSC[C@H](NC(=O)[C@@H](N)CCCCNC(=O)CC[C@H](NC(=O)CC[C@H](NC(=O)CCCCCCCCCCCCCCCCCCC(=O)O)C(=O)O)C(=O)O)C(=O)N[C@@H](CC(N)=O)C(=O)N[C@@H]([C@@H](C)O)C(=O)N[C@@H](C)C(=O)N[C@@H]([C@@H](C)O)C(=O)N1)[C@@H](C)O)C(=O)N1CCC[C@H]1C(=O)N[C@@H](CO)C(=O)N[C@@H](CO)C(=O)N[C@H](C(=O)N[C@@H](CC(N)=O)C(=O)N[C@H](C(=O)NCC(=O)N1CCC[C@H]1C(=O)N[C@@H](CCC(=O)O)C(=O)N[C@H](C(=O)N[C@@H](Cc1ccc(O)cc1)C(N)=O)[C@@H](C)O)C(C)C)[C@@H](C)O
notes: modifications are with respect to human amylin; also called compound 120
B6: the concentration for half-maximal inhibition (IC50) came out at 0.076 nM.

B7: N^ε1-[(4S)-4-carboxy-4-(19-carboxynonadecanoylamino)butanoyl]-[Glu14,Arg17,Pro21,Pro27,Pro34,Glu35]-h-amylin (peptide)
peptide: K([γGlu-C20 diacid])CNTATCATQRLAEFLRHSSPNFGAIPSSTNVGPETY-NH2
modifications: disulfide 2-7; N-terminus assumed
SMILES: CC[C@H](C)[C@H](NC(=O)[C@H](C)NC(=O)CNC(=O)[C@H](Cc1ccccc1)NC(=O)[C@H](CC(N)=O)NC(=O)[C@@H]1CCCN1C(=O)[C@H](CO)NC(=O)[C@H](CO)NC(=O)[C@H](Cc1c[nH]cn1)NC(=O)[C@H](CCCNC(=N)N)NC(=O)[C@H](CC(C)C)NC(=O)[C@H](Cc1ccccc1)NC(=O)[C@H](CCC(=O)O)NC(=O)[C@H](C)NC(=O)[C@H](CC(C)C)NC(=O)[C@H](CCCNC(=N)N)NC(=O)[C@H](CCC(N)=O)NC(=O)[C@@H](NC(=O)[C@H](C)NC(=O)[C@@H]1CSSC[C@H](NC(=O)[C@@H](N)CCCCNC(=O)CC[C@H](NC(=O)CCCCCCCCCCCCCCCCCCC(=O)O)C(=O)O)C(=O)N[C@@H](CC(N)=O)C(=O)N[C@@H]([C@@H](C)O)C(=O)N[C@@H](C)C(=O)N[C@@H]([C@@H](C)O)C(=O)N1)[C@@H](C)O)C(=O)N1CCC[C@H]1C(=O)N[C@@H](CO)C(=O)N[C@@H](CO)C(=O)N[C@H](C(=O)N[C@@H](CC(N)=O)C(=O)N[C@H](C(=O)NCC(=O)N1CCC[C@H]1C(=O)N[C@@H](CCC(=O)O)C(=O)N[C@H](C(=O)N[C@@H](Cc1ccc(O)cc1)C(N)=O)[C@@H](C)O)C(C)C)[C@@H](C)O
notes: as for B2
Take B7: the IC50 worked out at 0.14 nM.

The record behind these values is patent US20140087995A1 (published 2014).
